Experiments:
Grb2 SH2 = Grb2 SH2 (UniProt P62993); assay: SH2 binding enrichment of the phosphorylated peptide, bacterial display (enrichment ratio); higher = better substrate or ligand; peptides without Tyr show the background
c-Src SH2 = assay: as above
SHP2-C SH2 = assay: as above
Fes = Fes (UniProt P07332); assay: phosphorylation enrichment, bacterial display (enrichment ratio); higher = better substrate or ligand; peptides without Tyr show the background
c-Abl (mouse) = assay: as above
EPHB1 = EPHB1 (UniProt P54762); assay: as above
Sequence of EPHB1 (P54762 whole entry, looked up): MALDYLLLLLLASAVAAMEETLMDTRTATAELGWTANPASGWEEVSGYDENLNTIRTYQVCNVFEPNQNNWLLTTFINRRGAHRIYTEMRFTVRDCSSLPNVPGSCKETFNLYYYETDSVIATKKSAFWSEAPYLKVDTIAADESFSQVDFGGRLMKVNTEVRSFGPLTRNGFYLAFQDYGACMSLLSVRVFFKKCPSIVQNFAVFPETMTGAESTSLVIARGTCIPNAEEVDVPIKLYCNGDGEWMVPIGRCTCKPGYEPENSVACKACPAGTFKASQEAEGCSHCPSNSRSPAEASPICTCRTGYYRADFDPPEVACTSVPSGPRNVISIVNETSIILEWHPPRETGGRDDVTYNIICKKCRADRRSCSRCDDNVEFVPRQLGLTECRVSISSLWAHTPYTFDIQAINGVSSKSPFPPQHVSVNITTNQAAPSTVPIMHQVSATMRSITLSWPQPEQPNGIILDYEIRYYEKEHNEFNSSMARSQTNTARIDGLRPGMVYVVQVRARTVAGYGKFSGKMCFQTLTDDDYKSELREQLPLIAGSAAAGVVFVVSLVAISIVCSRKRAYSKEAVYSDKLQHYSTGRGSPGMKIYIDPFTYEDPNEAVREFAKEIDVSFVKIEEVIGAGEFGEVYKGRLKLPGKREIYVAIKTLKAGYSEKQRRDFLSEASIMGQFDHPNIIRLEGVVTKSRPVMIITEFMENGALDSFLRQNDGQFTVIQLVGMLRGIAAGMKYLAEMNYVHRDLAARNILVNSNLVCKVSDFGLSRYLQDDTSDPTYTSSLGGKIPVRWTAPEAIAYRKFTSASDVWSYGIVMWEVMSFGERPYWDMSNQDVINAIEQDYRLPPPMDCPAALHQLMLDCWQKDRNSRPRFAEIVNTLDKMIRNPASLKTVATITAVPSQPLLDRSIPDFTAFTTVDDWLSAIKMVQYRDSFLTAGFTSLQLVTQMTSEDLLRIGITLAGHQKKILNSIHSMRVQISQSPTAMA

EPHB2 = EPHB2 (UniProt P29323); assay: as above
Sequence of EPHB2 (P29323 whole entry, looked up): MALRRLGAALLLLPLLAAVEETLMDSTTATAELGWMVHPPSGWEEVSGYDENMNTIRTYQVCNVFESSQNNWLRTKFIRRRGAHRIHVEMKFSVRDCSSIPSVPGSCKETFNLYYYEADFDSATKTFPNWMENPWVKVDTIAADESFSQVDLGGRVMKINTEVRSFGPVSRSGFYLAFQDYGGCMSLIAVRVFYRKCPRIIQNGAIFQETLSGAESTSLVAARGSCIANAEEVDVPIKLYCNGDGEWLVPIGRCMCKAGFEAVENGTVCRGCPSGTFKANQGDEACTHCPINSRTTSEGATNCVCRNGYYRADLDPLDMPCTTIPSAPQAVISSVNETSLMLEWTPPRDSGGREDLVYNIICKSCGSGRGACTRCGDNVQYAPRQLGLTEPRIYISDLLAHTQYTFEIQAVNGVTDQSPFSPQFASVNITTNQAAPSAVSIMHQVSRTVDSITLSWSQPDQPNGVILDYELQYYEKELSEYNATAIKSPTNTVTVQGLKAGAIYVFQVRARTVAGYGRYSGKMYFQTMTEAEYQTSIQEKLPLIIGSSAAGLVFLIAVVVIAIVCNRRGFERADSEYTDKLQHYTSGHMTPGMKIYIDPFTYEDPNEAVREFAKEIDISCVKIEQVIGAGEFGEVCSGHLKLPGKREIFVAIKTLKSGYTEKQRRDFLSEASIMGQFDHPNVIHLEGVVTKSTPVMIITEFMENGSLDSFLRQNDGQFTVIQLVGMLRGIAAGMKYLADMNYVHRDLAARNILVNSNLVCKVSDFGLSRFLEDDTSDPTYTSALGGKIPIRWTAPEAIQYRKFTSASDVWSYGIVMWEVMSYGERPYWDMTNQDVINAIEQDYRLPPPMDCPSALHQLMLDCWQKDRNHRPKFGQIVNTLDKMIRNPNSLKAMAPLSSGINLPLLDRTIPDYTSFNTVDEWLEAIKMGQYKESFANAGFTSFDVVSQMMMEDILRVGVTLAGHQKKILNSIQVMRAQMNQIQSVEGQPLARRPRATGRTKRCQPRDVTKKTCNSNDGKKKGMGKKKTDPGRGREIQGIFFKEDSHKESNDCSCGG

Fyn = Fyn (UniProt P06241); assay: as above
Sequence of Fyn (P06241 whole entry, looked up): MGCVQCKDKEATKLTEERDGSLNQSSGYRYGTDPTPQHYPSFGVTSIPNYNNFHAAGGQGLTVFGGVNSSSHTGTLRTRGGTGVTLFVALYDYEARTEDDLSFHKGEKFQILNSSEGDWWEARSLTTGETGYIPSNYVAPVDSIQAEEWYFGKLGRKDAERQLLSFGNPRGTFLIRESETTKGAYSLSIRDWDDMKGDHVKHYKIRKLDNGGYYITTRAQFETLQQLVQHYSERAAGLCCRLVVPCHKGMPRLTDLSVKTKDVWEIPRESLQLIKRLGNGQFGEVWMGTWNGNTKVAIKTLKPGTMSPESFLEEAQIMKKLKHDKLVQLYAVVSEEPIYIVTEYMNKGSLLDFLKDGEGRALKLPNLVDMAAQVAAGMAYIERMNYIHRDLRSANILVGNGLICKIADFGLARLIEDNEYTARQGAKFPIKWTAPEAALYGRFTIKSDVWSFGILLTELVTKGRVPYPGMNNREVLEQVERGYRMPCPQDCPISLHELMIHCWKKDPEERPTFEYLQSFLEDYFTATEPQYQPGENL

c-Src = assay: as above
Hck = Hck (UniProt P08631); assay: as above
Sequence of Hck (P08631 whole entry, looked up): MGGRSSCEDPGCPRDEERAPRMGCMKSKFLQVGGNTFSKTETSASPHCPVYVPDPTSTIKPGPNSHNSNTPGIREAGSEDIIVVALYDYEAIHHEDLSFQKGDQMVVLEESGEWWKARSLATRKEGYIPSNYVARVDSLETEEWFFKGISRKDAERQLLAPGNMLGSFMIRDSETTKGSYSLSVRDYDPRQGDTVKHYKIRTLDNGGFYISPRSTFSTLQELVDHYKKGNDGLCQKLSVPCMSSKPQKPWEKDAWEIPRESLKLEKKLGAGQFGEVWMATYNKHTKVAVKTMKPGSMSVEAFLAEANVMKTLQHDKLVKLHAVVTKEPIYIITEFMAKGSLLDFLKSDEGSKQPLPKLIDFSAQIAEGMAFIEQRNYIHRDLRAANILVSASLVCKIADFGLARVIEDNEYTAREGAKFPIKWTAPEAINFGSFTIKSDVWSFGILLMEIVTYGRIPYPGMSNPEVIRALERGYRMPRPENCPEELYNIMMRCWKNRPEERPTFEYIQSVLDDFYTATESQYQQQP

AncSZ = assay: as above
Fer (mouse) = assay: as above
FGFR3 = FGFR3 (UniProt P22607); assay: as above
Sequence of FGFR3 (P22607 whole entry, looked up): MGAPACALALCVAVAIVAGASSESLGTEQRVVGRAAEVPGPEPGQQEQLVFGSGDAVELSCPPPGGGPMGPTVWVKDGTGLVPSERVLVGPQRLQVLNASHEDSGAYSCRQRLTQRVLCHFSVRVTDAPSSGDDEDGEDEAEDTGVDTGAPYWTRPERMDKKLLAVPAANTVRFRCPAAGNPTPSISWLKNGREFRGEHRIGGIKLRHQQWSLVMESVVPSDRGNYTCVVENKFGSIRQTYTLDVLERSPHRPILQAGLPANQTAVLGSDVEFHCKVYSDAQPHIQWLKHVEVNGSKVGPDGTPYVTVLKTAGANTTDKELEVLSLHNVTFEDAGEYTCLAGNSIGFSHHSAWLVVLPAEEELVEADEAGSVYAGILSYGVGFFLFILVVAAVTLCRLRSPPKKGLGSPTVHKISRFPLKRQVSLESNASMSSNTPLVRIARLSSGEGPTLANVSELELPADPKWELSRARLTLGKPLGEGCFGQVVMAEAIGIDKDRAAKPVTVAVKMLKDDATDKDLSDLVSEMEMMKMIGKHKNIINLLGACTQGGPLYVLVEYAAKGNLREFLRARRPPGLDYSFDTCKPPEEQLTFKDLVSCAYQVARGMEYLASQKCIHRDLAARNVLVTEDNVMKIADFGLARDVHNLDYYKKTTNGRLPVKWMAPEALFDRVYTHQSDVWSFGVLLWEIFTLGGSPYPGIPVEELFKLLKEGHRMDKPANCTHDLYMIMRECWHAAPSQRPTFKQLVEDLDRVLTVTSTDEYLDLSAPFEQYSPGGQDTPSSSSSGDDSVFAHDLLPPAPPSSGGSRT

MERTK = MERTK (UniProt Q12866); assay: as above
Jak2 = Jak2 (UniProt O60674); assay: as above
FGFR1 = FGFR1 (UniProt P11362); assay: as above
Sequence of FGFR1 (P11362 whole entry, looked up, the tested form may be a part): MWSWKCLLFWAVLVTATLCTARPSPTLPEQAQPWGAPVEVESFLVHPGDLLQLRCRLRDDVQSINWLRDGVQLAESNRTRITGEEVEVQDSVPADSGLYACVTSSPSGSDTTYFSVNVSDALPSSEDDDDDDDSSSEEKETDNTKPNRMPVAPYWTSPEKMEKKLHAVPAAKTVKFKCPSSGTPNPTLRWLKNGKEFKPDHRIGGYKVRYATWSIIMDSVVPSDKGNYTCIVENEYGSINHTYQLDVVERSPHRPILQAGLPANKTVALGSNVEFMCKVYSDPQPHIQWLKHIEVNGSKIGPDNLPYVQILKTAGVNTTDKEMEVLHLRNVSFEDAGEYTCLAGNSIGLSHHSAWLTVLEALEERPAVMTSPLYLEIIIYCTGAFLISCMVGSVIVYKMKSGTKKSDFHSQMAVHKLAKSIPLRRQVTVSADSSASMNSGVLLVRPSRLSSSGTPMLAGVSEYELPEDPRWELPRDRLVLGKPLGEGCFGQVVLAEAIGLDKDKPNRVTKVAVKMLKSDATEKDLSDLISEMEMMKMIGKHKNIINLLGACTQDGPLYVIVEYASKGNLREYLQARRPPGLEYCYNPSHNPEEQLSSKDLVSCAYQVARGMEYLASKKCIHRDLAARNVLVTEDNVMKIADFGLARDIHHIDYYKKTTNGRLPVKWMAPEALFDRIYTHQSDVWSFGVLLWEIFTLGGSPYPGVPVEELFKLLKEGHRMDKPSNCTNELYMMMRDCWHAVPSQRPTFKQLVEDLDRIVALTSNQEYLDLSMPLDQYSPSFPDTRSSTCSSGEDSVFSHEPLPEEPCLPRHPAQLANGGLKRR
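Wherever SH2 binding enrichment of the phosphorylated peptide, bacterial display is given: peptide library displayed on the E. coli surface as eCPX fusions, selected cells deep-sequenced, score is each peptide's frequency after selection divided by its frequency in the input.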
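Wherever phosphorylation enrichment, bacterial display is given: 11-residue human phosphosite peptides and single-mutation variants displayed on the E. coli surface, counted by deep sequencing, each peptide's frequency after selection divided by its frequency in the unselected input library; frequency after pTyr selection over input frequency; kinase dosed for 20-30% of maximal phosphorylation in three min.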

Sequence of Grb2 SH2 (P62993 whole entry, looked up): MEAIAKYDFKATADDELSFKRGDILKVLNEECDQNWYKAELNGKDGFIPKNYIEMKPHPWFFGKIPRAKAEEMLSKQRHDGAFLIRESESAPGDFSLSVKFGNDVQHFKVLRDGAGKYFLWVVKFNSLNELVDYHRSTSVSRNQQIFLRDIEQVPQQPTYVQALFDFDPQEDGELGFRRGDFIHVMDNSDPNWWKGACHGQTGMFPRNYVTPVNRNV

Sequence	SH2 binding enrichment (Grb2 SH2)	SH2 binding enrichment (c-Src SH2)	SH2 binding enrichment (SHP2-C SH2)	phosphorylation enrichment (Fes)	phosphorylation enrichment (c-Abl (mouse))	phosphorylation enrichment (EPHB1)	phosphorylation enrichment (EPHB2)	phosphorylation enrichment (Fyn)	phosphorylation enrichment (c-Src)	phosphorylation enrichment (Hck)	phosphorylation enrichment (AncSZ)	phosphorylation enrichment (Fer (mouse))	phosphorylation enrichment (FGFR3)	phosphorylation enrichment (MERTK)	phosphorylation enrichment (Jak2)	phosphorylation enrichment (FGFR1)
LYSGDCYRIQG [DDR2_Y740_Y740C]	0.828	0.522	0.701	1.18	0.808	1.8	1.3	1.18	1.22	1.16	1.05	0.73	1.11	6.98	1.04	0.956
ASRKYYAMKIL [AKT3_Y174_G171R]	1.1	1.18	1.14	0.634	0.379	0.367	0.338	0.348	0.265	0.368	0.505	0.441	0.535	0.437	0.385	0.475
VSYDEYRYRSV [CFTR_Y515]	0.978	1.45	0.822	0.942	0.667	0.485	0.417	0.633	0.743	0.586	0.754	0.381	0.484	0.428	0.71	0.455
LERFIYNRQEF [HLA-DPB1_Y59_E62Q_YF]	1.03	0.566	0.783	0.87	0.464	0.436	0.551	0.551	0.859	0.77	0.766	0.427	0.532	0.357	0.629	0.491
YPPTHYIRRVP [SLC4A11_Y820]	0.675	0.443	0.596	0.678	0.601	0.407	0.492	0.444	0.449	0.369	0.754	0.346	0.43	0.469	0.76	0.448
IRGNMYFENSF [EGFR_Y112_YF]	0.895	0.606	1.05	1.07	0.583	0.581	0.547	0.438	0.395	0.457	0.879	0.527	0.713	0.536	0.841	0.514
ISIFHCAKGQP [MPZ_Y82_Y82C]	1.04	0.524	0.521	1.7	0.954	0.773	0.845	0.602	0.609	0.608	1.33	0.643	1.02	0.62	1.41	0.729
CTTIHYNYRCN [TP53_Y234_M237R]	1.5	1.36	1.39	1.03	0.726	0.594	0.54	0.498	0.522	0.497	0.797	0.455	0.713	0.465	0.832	0.502
LSAPCYLNRIS [HEXA_Y421_W420C]	1.14	0.594	0.888	0.82	0.631	0.447	0.552	0.377	0.422	0.507	0.825	0.424	0.535	0.382	0.634	0.495
SSQHRYSTPHA [RAF1_Y232]	0.714	2.11	0.898	0.53	0.387	0.479	0.354	0.357	0.433	0.293	0.682	0.365	0.344	0.437	0.403	0.364
DEEPPDRGPFC [SASH1_Y551_Y551D]	1.01	0.61	0.694	1.14	0.798	0.549	0.596	0.532	0.513	0.496	1.15	0.665	0.679	0.465	0.952	0.574
ITNHIYTWVDP [DFNB31_Y234_V229I]	1.05	0.99	0.791	1.97	0.832	2.92	1.62	4.11	4.2	2.66	2.4	9.75	2.95	8.78	1.06	3.64
PADCRYFTFPQ [GAMT_Y222_A224T_YF]	1.33	2.07	1.78	1.53	0.944	0.613	0.483	0.61	2.58	0.761	1.1	0.68	1.09	1.66	2.88	1.2
ADRNHYRRYRR [YBX1_Y145_P149R]	0.513	0.538	0.467	0.861	0.661	0.522	0.499	0.525	0.608	0.522	0.619	0.488	0.572	0.532	0.549	0.532
EEQKKYYNAVK [SCN5A_Y1494_M1498V]	1.06	0.584	0.878	0.789	0.574	0.368	0.433	0.429	0.548	0.496	0.651	0.393	0.486	0.426	0.625	0.425
EEQKKYFNATK [SCN5A_Y1494_M1498T_YF]	0.766	0.581	0.516	0.729	0.459	0.356	0.479	0.34	0.377	0.379	0.607	0.366	0.582	0.269	0.6	0.49
HRGCLYLAIEF [TEK_Y899_Y897C_YF]	0.686	0.206	0.316	1.37	1.31	0.758	1.81	0.26	0.49	0.367	1.29	0.511	1.17	0.467	1.33	0.667

Sequence	SH2 binding enrichment (Grb2 SH2)	SH2 binding enrichment (c-Src SH2)	SH2 binding enrichment (SHP2-C SH2)	phosphorylation enrichment (Fes)	phosphorylation enrichment (c-Abl (mouse))	phosphorylation enrichment (EPHB1)	phosphorylation enrichment (EPHB2)	phosphorylation enrichment (Fyn)	phosphorylation enrichment (c-Src)	phosphorylation enrichment (Hck)	phosphorylation enrichment (AncSZ)	phosphorylation enrichment (Fer (mouse))	phosphorylation enrichment (FGFR3)	phosphorylation enrichment (MERTK)	phosphorylation enrichment (Jak2)	phosphorylation enrichment (FGFR1)
HSVLQYVGGVM [FGGY_Y136]	0.961	0.493	0.511	1.48	0.846	0.943	0.977	0.776	0.738	0.833	1.05	0.73	1.18	0.986	1.11	0.944
REENGYNTFAS [FGF10_Y161_I156R_YF]	0.728	1.14	0.637	1	0.606	0.617	0.709	0.84	0.827	0.4	0.973	0.558	0.862	0.69	0.91	0.728
KNNDGYIDYAE [MCFD2_Y135]	0.945	1.01	0.695	1.13	0.656	0.538	0.658	0.536	0.465	0.625	1.17	0.464	0.736	0.474	1.01	0.606
CDIPRYIVSQL [MAST2_Y461]	0.744	0.406	0.654	1.02	0.816	0.535	0.577	0.506	0.442	0.482	1.04	0.454	0.618	0.501	1.04	0.497
FFVVEYRNQKP [MUC17_Y4332_D4334N_YF]	1.46	0.865	1.38	1.65	1.52	0.795	0.841	0.623	0.608	0.687	1.32	0.82	0.98	0.413	1.55	0.581
PGIRMYQVQYN [LRFN1_Y454]	1.22	1.02	1.37	1.39	0.995	0.93	0.92	0.815	0.727	0.503	1.06	0.446	0.863	0.764	1.24	0.67
HPHECYAKVFD [ALB_Y394_D389H]	0.944	3.07	2.67	1.36	1.01	0.641	0.441	0.622	0.659	0.654	1.16	0.624	0.845	0.764	1.3	0.636
SLHPGYNFRFA [P2RX7_Y291_Y288H_YF]	0.89	0.703	0.61	0.904	0.57	0.573	0.417	0.378	0.385	0.432	0.852	0.434	0.524	0.394	0.765	0.364
DWRQEYVLNES [TGM1_Y267]	0.856	0.449	0.702	1.15	0.677	0.55	0.817	0.593	1.36	0.686	1.23	0.558	0.909	0.53	0.863	0.878
DPTFGYEDFTR [SESN2_Y323]	0.821	5.25	0.771	1.28	0.733	0.525	0.577	0.461	0.694	0.595	1.08	0.445	0.699	0.545	1.03	0.481
FVSLIYTNFEA [GSTP1_Y109_I105V_YF]	1.35	0.8	1.15	1.46	2.22	1.13	0.91	5.96	5.94	3.31	1.78	3.18	1.05	5.37	1.18	0.962
CTAIHYNFMCN [TP53_Y234_T231A_YF]	1.33	2.01	1.73	0.909	0.735	0.622	0.526	0.442	0.525	0.597	0.814	0.461	0.614	0.38	0.863	0.598
RLLVVYPWNQR [HBB_Y36_T39N]	2.12	1.54	1.84	1.4	0.735	0.391	0.752	0.603	0.351	0.431	1.1	0.595	0.62	0.636	1.04	0.557
FGPPQYNMQFS [ERBB2IP_Y977_I979M_YF]	0.932	0.529	0.653	0.679	0.383	0.414	0.427	0.456	0.372	0.52	0.64	0.306	0.452	0.376	0.49	0.448
QHVPDYRQNGF [PCDHGA1_Y890_V894G_YF]	0.776	0.494	0.633	0.875	0.758	0.589	0.459	0.531	0.543	0.455	0.787	0.503	0.597	0.464	0.826	0.55
VKRNRYKDILP [PTPN12_Y64_K61R]	0.541	0.483	0.364	0.561	0.514	0.575	0.695	0.689	0.628	0.579	0.65	0.49	0.47	0.553	0.528	0.463
